This test has as its target T1, recombinant folate receptor alpha protein (immobilized) (UniProt P15328 25-233, limits assumed).
T1 construct: also called FRa
As to the kind of experiment: binding of GFP+ IR T cells to immobilized recombinant protein (FIG. 3A).

We go through two molecules from patent publication US20180057557A1 (University of Pennsylvania, published 2018).

T1 sequence (P15328 25-233 limits assumed): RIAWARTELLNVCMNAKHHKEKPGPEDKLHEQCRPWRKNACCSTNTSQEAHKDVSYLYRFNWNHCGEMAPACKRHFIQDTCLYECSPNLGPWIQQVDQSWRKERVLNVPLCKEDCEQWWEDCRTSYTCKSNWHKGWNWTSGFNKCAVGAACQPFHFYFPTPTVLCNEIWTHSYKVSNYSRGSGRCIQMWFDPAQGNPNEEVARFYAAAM

B1: Anti-FSHRb33-53FSH-28z immunoreceptor (on primary human T cells) (other)
chain: not shown
notes: also called anti-FSHR (33-53)-28z IR; Anti-FSHR(33-53)-28z
Turning to B1, the binding result was “no binding”.

B2: Anti-FSHRb51-65FSH-28z immunoreceptor (on primary human T cells) (other, not shown: large carriers)
chain: not shown
notes: Chimeric immunoreceptor on transduced primary human T cells; also called anti-FSHR (51-65)-28z IR; Anti-FSHR(51-65)-28z
Consider B2, for which the binding result is “no binding”.
